Among the targets are hMC5-R (human) (UniProt P33032); hMC1-R (human) (UniProt Q01726); hMC3-R (human) (UniProt P41968); hMC4-R (human) (UniProt P32245).
Common to all, as to experiment: cell-based or functional assay

Bridge positions count the residues as written; N and C are the ends. Square brackets hold non-standard residues; d marks the D form. 1Nal = N[C@@H](Cc1cccc2ccccc12)C(=O)O; 2Nal = N[C@@H](Cc1ccc2ccccc2c1)C(=O)O; d2Nal = N[C@H](Cc1ccc2ccccc2c1)C(=O)O

Among the data in patent US20120135923A1, “Use of Melanocortins to Treat Dyslipidemia” (IPSEN PHARMA, S.A.S., priority 2009, published 2012) are cAMP EC50 and cAMP Kb values, retold here.

Chain of hMC4-R (human) (P32245 whole entry): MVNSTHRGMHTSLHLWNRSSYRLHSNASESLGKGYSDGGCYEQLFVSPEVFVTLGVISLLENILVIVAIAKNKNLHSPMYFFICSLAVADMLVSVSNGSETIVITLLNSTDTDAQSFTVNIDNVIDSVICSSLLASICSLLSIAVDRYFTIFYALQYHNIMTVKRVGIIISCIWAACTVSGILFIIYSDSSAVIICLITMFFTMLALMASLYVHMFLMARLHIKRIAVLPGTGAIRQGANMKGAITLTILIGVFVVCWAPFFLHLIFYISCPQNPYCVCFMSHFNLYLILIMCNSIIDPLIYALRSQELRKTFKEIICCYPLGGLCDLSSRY
Chain of hMC1-R (human) (Q01726 whole entry): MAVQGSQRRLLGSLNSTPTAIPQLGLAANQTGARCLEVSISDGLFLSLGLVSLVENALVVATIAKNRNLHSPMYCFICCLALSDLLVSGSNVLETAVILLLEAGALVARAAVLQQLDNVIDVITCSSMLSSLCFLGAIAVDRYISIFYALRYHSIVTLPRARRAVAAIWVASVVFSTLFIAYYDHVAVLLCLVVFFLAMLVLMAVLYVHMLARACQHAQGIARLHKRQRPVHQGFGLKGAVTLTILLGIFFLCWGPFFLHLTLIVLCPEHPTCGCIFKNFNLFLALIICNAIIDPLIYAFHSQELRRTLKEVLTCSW
Chain of hMC5-R (human) (P33032 whole entry): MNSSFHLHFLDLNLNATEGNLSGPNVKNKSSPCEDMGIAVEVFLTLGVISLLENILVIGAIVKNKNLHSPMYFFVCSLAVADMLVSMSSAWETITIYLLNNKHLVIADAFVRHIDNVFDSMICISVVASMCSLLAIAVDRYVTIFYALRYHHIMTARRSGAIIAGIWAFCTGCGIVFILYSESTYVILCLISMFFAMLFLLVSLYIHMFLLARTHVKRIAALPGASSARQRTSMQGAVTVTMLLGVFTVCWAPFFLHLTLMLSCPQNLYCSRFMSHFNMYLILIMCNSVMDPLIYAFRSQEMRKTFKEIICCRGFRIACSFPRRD
Chain of hMC3-R (human) (P41968 whole entry): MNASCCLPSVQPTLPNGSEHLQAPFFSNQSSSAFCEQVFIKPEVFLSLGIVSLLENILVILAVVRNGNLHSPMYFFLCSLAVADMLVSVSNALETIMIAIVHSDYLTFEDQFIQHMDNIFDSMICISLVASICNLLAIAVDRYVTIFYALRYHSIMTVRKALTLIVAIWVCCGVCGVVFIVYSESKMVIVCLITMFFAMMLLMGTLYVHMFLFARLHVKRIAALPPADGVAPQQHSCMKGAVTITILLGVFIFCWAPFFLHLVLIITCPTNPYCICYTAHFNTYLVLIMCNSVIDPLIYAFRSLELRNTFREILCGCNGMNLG

For the substance “Ac-Arg-c(Cys-D-Ala-His-D-Phe-Arg-Trp-Cys)-NH2 (peptide; unit assumed)”, the cAMP EC50 with hMC5-R (human) was found to be 1630 nM.

As for “Ac-Arg-c(Cys-D-Ala-His-D-Phe-Arg-Trp-Pen)-NH2 (peptide; unit assumed)”, the figures for the cAMP EC50 with hMC5-R (human), with hMC1-R (human) and in the assay with hMC3-R (human) were 10000 nM, 48.3 nM and 13.3 nM, respectively.

Consider “Ac-CEH[d2Nal]R[1Nal]ACPPKD-NH2 (disulfide 1-8) [listing 1 of 2 here]”, for which the cAMP EC50 with hMC1-R (human) turned out to be 269. Moreover, the cAMP Kb with hMC4-R (human) turned out to be 5.92; in the assay with hMC3-R (human), 105.

In the case of “Ac-CEH[d2Nal]R[1Nal]ACPPKD-NH2 (disulfide 1-8) [listing 2 of 2 here]”, the cAMP EC50 with hMC5-R (human) amounted to 104 nM.

The substance “Ac-CEH[d2Nal]R[2Nal]ACPPKD-NH2 (disulfide 1-8) [listing 1 of 2 here]” showed a cAMP EC50 with hMC1-R (human) of 33.6. In addition, the values for the cAMP Kb in the assay with hMC4-R (human) and with hMC3-R (human) were 12.2 and 140, respectively.

Consider “Ac-CEH[d2Nal]R[2Nal]ACPPKD-NH2 (disulfide 1-8) [listing 2 of 2 here]”, for which the cAMP EC50 in the assay with hMC5-R (human) stood at 66.9 nM.

In turn, “Ac-D-Arg-c(Cys-D-Ala-His-D-Phe-Arg-Trp-Cys)-NH2 (peptide; unit assumed)” returned a cAMP EC50 with hMC5-R (human) of 1020 nM.

In turn, “Ac-Nle-c(Asp-His-D-2-Nal-Arg-Trp-Ala-Lys)-NH2 (peptide; unit assumed)” had a cAMP EC50 with hMC1-R (human) of 0.619 nM.

In the case of “Ac-Nle-c(Asp-His-D-2-Nal-Arg-Trp-Lys)-β-Ala-Tyr-Gly-Arg-Lys-Lys-Arg-Arg-Gln-Arg-Arg-Arg-NH2 (peptide; in nM (unit assumed))”, the values for the cAMP Kb with hMC4-R (human) and with hMC3-R (human) were 4.07 and 220, respectively.

“Ac-Nle-c(Asp-His-D-2-Nal-Arg-Trp-Lys)-β-Ala-β-Ala-Tyr-Gly-Arg-Lys-Lys-Arg-Arg-Gln-Arg-Arg-Arg-NH2 (peptide; in nM (unit assumed))” came in with a cAMP EC50 in the assay with hMC1-R (human) of 1.39. The values for the cAMP Kb with hMC4-R (human) and with hMC3-R (human) were 7.94 and 16.2, respectively.

Consider “Ac-Nle-c(Asp-His-D-2-Nal-Arg-Trp-Lys)-β-Ala-β-Ala-Tyr-Gly-Arg-Lys-Lys-Arg-Arg-Gln-Arg-Arg-Arg-NH2 (peptide; unit assumed)”, for which the cAMP EC50 with hMC5-R (human) stood at 0.839 nM.

For “Ac-Nle-c(Asp-His-D-2-Nal-Arg-Trp-β-Ala-Lys)-NH2 (peptide; unit assumed)”, the cAMP EC50 with hMC1-R (human) worked out at 0.913 nM.

With “Ac-Nle-c(Pen-D-Ala-His-D-Phe-Arg-Trp-Cys)-NH2 (peptide; unit assumed)”, the cAMP EC50 in the assay with hMC4-R (human) was found to be 0.531 nM; in the assay with hMC3-R (human), 1.89 nM.

Consider “Ac-Tyr-Arg-c(Cys-D-Ala-His-D-Phe-Arg-Trp-Cys)-NH2 (peptide; unit assumed)”, for which the figures for the cAMP EC50 with hMC5-R (human) and with hMC3-R (human) were 1540 nM and 2.39 nM, respectively.

Take “Ac-c(Cys-Glu-His-D-2-Nal-Arg-Bal-Ala-Cys)-Pro-Pro-Lys-Asp-NH2 (peptide; in nM (unit assumed))”: in the assay with hMC1-R (human), the cAMP EC50 was 690. The cAMP Kb in the assay with hMC4-R (human) is 4.56; with hMC3-R (human) it was 70.7.

On to “Ac-c(Cys-Glu-His-D-2-Nal-Arg-Bal-Ala-Cys)-Pro-Pro-Lys-Asp-NH2 (peptide; unit assumed)”, for which, in the assay with hMC5-R (human), the cAMP EC50 is 177 nM.

In the assay with hMC1-R (human), “Ac-c(Cys-Glu-His-D-2-Nal-Arg-Trp-Ala-Cys)-Pro-Pro-Lys-Asp-β-Ala-Tyr-Gly-Arg-Lys-Lys-Arg-Arg-Gln-Arg-Arg-Arg-NH2 (peptide; in nM (unit assumed))” displayed a cAMP EC50 of 6.3. Moreover, the results for the cAMP Kb with hMC4-R (human) and in the assay with hMC3-R (human) were 1.66 and 70, respectively.

Regarding “Ac-c(Cys-Glu-His-D-2-Nal-Arg-Trp-Ala-Cys)-Pro-Pro-Lys-Asp-β-Ala-Tyr-Gly-Arg-Lys-Lys-Arg-Arg-Gln-Arg-Arg-Arg-NH2 (peptide; unit assumed)”, the cAMP EC50 in the assay with hMC5-R (human) worked out at 38.2 nM.

In the assay with hMC4-R (human), “Hydantoin(C(O)-(A6c-Nle))-c(Cys-D-Ala-His-D-Phe-Arg-Trp-Cys)-NH2 (peptide; unit assumed)” showed a cAMP EC50 of 1.8 nM.

As for “Hydantoin(C(O)-(Ala-Gly))-c(Cys-D-Ala-His-D-Phe-Arg-Trp-Cys)-NH2 (peptide)”, the cAMP EC50 in the assay with hMC5-R (human) turned out to be 516 nM.

With “Hydantoin(C(O)-(Ala-Gly))-c(Cys-D-Ala-His-D-Phe-Arg-Trp-Cys)-NH2 (peptide; unit assumed)”, the cAMP EC50 in the assay with hMC1-R (human) was determined as 17.6 nM; with hMC4-R (human) it was 0.241 nM; with hMC3-R (human), 2.23 nM.

For the substance “Hydantoin(C(O)-(Arg-Gly))-c(Cys-D-Ala-His-D-Phe-Arg-Trp-Cys)-NH2 (peptide)”, the cAMP EC50 with hMC5-R (human) came to 3560 nM.

Consider “Hydantoin(C(O)-(Arg-Gly))-c(Cys-D-Ala-His-D-Phe-Arg-Trp-Cys)-NH2 (peptide; unit assumed)”, for which the cAMP EC50 with hMC1-R (human) amounted to 8.81 nM; with hMC4-R (human), 0.503 nM; with hMC3-R (human), 18.2 nM.

As to “Hydantoin(C(O)-(Arg-Gly))-c(Cys-Glu-His-D-Phe-Arg-Trp-Cys)-NH2 (peptide)”, in the assay with hMC5-R (human), the cAMP EC50 was 4010 nM.

In the case of “Hydantoin(C(O)-(Arg-Gly))-c(Cys-Glu-His-D-Phe-Arg-Trp-Cys)-NH2 (peptide; unit assumed)”, the values for the cAMP EC50 with hMC1-R (human), with hMC4-R (human) and with hMC3-R (human) were 8.83 nM, 0.0979 nM and 7.86 nM, respectively.

On to “Hydantoin(C(O)-(D-Ala-Gly))-c(Cys-D-Ala-His-D-Phe-Arg-Trp-Cys)-NH2 (peptide; unit assumed)”, for which the cAMP EC50 was 4.7 nM with hMC1-R (human), 0.309 nM with hMC4-R (human) and 2.22 nM with hMC3-R (human).

For the substance “Hydantoin(C(O)-(D-Ala-Nle))-c(Cys-D-Ala-His-D-Phe-Arg-Trp-Cys)-NH2 (peptide; unit assumed)”, the cAMP EC50 with hMC4-R (human) stood at 1.47 nM; with hMC3-R (human), 2.56 nM.

For the substance “Hydantoin(C(O)-(D-Arg-Gly))-c(Cys-D-Ala-His-D-Phe-Arg-Trp-Cys)-NH2 (peptide; unit assumed)”, the cAMP EC50 came out at 11.5 nM with hMC1-R (human), 0.513 nM in the assay with hMC4-R (human) and 23.2 nM in the assay with hMC3-R (human).

As to “Hydantoin(C(O)-(D-Arg-Gly))-c(Cys-Glu-His-D-Phe-Arg-Trp-Cys)-NH2 (peptide; unit assumed)”, the cAMP EC50 amounted to 18 nM with hMC1-R (human), 0.16 nM with hMC4-R (human) and 17.1 nM with hMC3-R (human).

“Hydantoin(C(O)-(Gly-Arg))-c(Cys-D-Ala-His-D-Phe-Arg-Trp-Cys)-NH2 (peptide)”: the cAMP EC50 in the assay with hMC5-R (human) was 3610 nM.

On to “Hydantoin(C(O)-(Gly-Arg))-c(Cys-D-Ala-His-D-Phe-Arg-Trp-Cys)-NH2 (peptide; unit assumed)”, for which the cAMP EC50 in the assay with hMC1-R (human) was 8.85 nM; in the assay with hMC4-R (human), 0.599 nM; with hMC3-R (human) it was 5.17 nM.

In the assay with hMC5-R (human), “Hydantoin(C(O)-(Gly-Arg))-c(Cys-Glu-His-D-Phe-Arg-Trp-Cys)-NH2 (peptide)” yielded a cAMP EC50 of 335 nM.

On to “Hydantoin(C(O)-(Gly-Arg))-c(Cys-Glu-His-D-Phe-Arg-Trp-Cys)-NH2 (peptide; unit assumed)”, for which the cAMP EC50 with hMC1-R (human) was 9.97 nM; with hMC4-R (human), 0.0687 nM; with hMC3-R (human), 3.63 nM.

Consider “Hydantoin(C(O)-(Gly-D-Arg))-c(Cys-D-Ala-His-D-Phe-Arg-Trp-Cys)-NH2 (peptide)”, for which, in the assay with hMC5-R (human), the cAMP EC50 came to 9840 nM.

For “Hydantoin(C(O)-(Gly-D-Arg))-c(Cys-D-Ala-His-D-Phe-Arg-Trp-Cys)-NH2 (peptide; unit assumed)”, the cAMP EC50 with hMC1-R (human) is 7.53 nM; in the assay with hMC4-R (human), 0.435 nM; in the assay with hMC3-R (human), 11.6 nM.

On to “Hydantoin(C(O)-(Gly-D-Arg))-c(Cys-Glu-His-D-Phe-Arg-Trp-Cys)-NH2 (peptide; unit assumed)”, for which the cAMP EC50 was found to be 12.9 nM with hMC1-R (human), 0.125 nM in the assay with hMC4-R (human) and 10.3 nM with hMC3-R (human).

In turn, “Hydantoin(C(O)-(Gly-Gly))-c(Cys-D-Ala-His-D-Phe-Arg-Trp-Cys)-NH2 (peptide)” yielded a cAMP EC50 with hMC5-R (human) of 201 nM.

“Hydantoin(C(O)-(Gly-Gly))-c(Cys-D-Ala-His-D-Phe-Arg-Trp-Cys)-NH2 (peptide; unit assumed)”: the cAMP EC50 in the assay with hMC1-R (human) came to 14.2 nM; with hMC4-R (human), 0.336 nM; with hMC3-R (human), 2.46 nM.

Consider “Hydantoin(C(O)-(Gly-Gly))-c(Cys-Glu-His-D-Phe-Arg-Trp-Cys)-NH2 (peptide)”, for which, in the assay with hMC5-R (human), the cAMP EC50 is more than 10000 nM.

As to “Hydantoin(C(O)-(Gly-Gly))-c(Cys-Glu-His-D-Phe-Arg-Trp-Cys)-NH2 (peptide; unit assumed)”, the figures for the cAMP EC50 in the assay with hMC1-R (human), in the assay with hMC4-R (human) and with hMC3-R (human) were 124 nM, 0.214 nM and 8.05 nM, respectively.

As to “Hydantoin(C(O)-(Leu-Nle))-c(Cys-D-Ala-His-D-Phe-Arg-Trp-Cys)-NH2 (peptide; unit assumed)”, the cAMP EC50 was 1.83 nM with hMC4-R (human) and 9.68 nM in the assay with hMC3-R (human).

In the assay with hMC5-R (human), “Hydantoin(C(O)-(Nle-Gly))-c(Cys-D-Ala-His-D-Phe-Arg-Trp-Pen)-NH2 (peptide)” displayed a cAMP EC50 of 352 nM.

As for “Hydantoin(C(O)-(Nle-Gly))-c(Cys-D-Ala-His-D-Phe-Arg-Trp-Pen)-NH2 (peptide; unit assumed)”, the cAMP EC50 in the assay with hMC1-R (human) is 17 nM; with hMC4-R (human), 0.584 nM; in the assay with hMC3-R (human), 21.5 nM.

“Hydantoin(C(O)-(Nle-Gly))-c(Cys-Glu-His-D-Phe-Arg-Trp-Cys)-NH2 (peptide)” came in with a cAMP EC50 in the assay with hMC5-R (human) of more than 10000 nM.

In the case of “Hydantoin(C(O)-(Nle-Gly))-c(Cys-Glu-His-D-Phe-Arg-Trp-Cys)-NH2 (peptide; unit assumed)”, the cAMP EC50 in the assay with hMC1-R (human) was determined as 54.3 nM; with hMC4-R (human), 0.177 nM; with hMC3-R (human), 12.2 nM.

In the case of “Hydantoin(C(O)-(Val-Nle))-c(Cys-D-Ala-His-D-Phe-Arg-Trp-Cys)-NH2 (peptide; unit assumed)”, the cAMP EC50 with hMC4-R (human) is 0.977 nM; with hMC3-R (human), 4.61 nM.

With “Nle-c(Asp-His-D-2-Nal-Arg-Trp-Lys)-β-Ala-Tyr-Gly-Arg-Lys-Lys-Arg-Arg-Gln-Arg-Arg-Arg-NH2 (peptide; in nM (unit assumed))”, the cAMP Kb with hMC4-R (human) turned out to be 18.5; with hMC3-R (human), 207.

As to “c[Hydantoin(C(O)-(Glu-D-Ala))-His-D-Phe-Arg-Trp-Lys]-NH2 (peptide; unit assumed)”, the figures for the cAMP EC50 with hMC4-R (human) and with hMC3-R (human) were 3.62 nM and 22.3 nM, respectively.

For “c[Hydantoin(C(O)-(Ile-Cys))-D-Ala-His-D-Phe-Arg-Trp-Cys]-NH2 (peptide; unit assumed)”, the cAMP EC50 in the assay with hMC4-R (human) was determined as 1.85 nM; with hMC3-R (human), 8.51 nM.
